According to paper PMC8642242 (Nature Immunology, 2021):

B1: WRAIR-2123 LALA-PG (human IgG1 with the triple Fc mutation LALA-PG) (antibody, V domains shown)
VH: EVQLVESGGGVVQPGRSLRLSCAASGFTFSSYAMHWVRQAPGKGLEWVAVLSYDGSNKYNADSVKGRFTISRDNSKNTLYLQMNSLRVEDTAMYYCARDGVSVTMVRGVIGPLCDYWGQGTLVTVSS
VL: not shown
B2: WRAIR-2039 LALA-PG (human IgG1 with the triple Fc mutation LALA-PG) (antibody, V domains shown)
VH: QVQLVQSGAEVKKPGASVKVSCKVSGYMLIELSMHWVRQAPGKGLEWMGGFDPEDAETIYAQEFQGRVTMTEDTSTDTAYMELSSLRSEDTAVYYCTTGPAVTNRPADYWGPGTLVTVSS
VL: QSVLTQPPSVSGAPGQRVTISCTGSSSNIGASYDVHWYQQLPGTAPKLLIYANSNRPSGVPDRFSGSKSGTSASLAITGLQAEDEADYYCQSYDSSLSYSVVFGGGTKLTVL
B3: WRAIR-2025 LALA-PG (human IgG1 with the triple Fc mutation LALA-PG) (antibody, V domains shown)
VH: QVHLVQSGAEVKKPGASVKVSCKVSGYTLVELSVHWVRQAPAKGLEWIGGFDPEDGETIYAQKFQGRVTMTEDTSTDTAYMELTNLRSEDTAVYYCVTSQPFVSPNWFDPWGQGTLVTVSS
VL: QSALTQPASVSGSPGQSITISCTGTSRDVGAYNYVSWYQQHPGKAPKLMIYEVTTRPSGVSNRFSGSKSGNTASLTISGLQAEDEADYYCSSYTGSRTLVFGTGTKVTVL
B4: WRAIR-2004 LALA-PG (human IgG1 with the triple Fc mutation LALA-PG) (antibody, V domains shown)
VH: QVQLVQSGAEVKKPGASVKVSCKASGYTFTGYYMHWVRQAPGQGLEWMGRINPSSGGTNYAQKFQGRVTMTRDTSISTAYMELSSLRSDDTAVYYCATDGDDGENWFDPWGQGTLVIVSS
VL: DIQMTQSPSSLSASVGDRVTITCRASQGISSWLAWYQQKPEKAPKSLIYAASSLQSGVPSRFSGSGSGTDFTLTISSLQPEDFATYYCQQYNSYPYTFGQGTKLEIK
B5: WRAIR-2173 LALA-PG (human IgG1 with the triple Fc mutation LALA-PG) (antibody, V domains shown)
VH: QVQLQESGPGLVKPSETLSLTCSVSGDSISSSDYSWGWIRQPPGKGLEWIGTIYYIKNTYYNPSLRSRVTLSVDTSKNLFSLKLSSVTAADTAVYYCARERPPFDVVVVPAARPYNWFDPWGLGTLVIVSS
VL: QSVLMQPPSVSGAPGQRVTISCTGSSSNIGAGYDVHWYQQLPGTAPKLLIYGNNNRPSGVPDRFSGSKSGTSASLAITGLQADDEADYYCQSYDSSLSGSKVFGGGTKLTVL

Target: SARS-CoV-2 S protein, full length (IL1/2020), on 293F-Spike-S2A cells (SARS-CoV-2, USA/IL1/2020 (S identical …, UniProt P0DTC2))
Assay: flow cytometry on cells
Settings: one partner purified

Binder	binding result
B1	binds
B2	binds
B3	binds
B4	binds
B5	binds
